Assay results reported in the supplement of paper PMC9170038.

System: MS2 coat protein
Test: apparent KD of MS2 coat protein; designed switch direction (-1 OFF switch, 1 ON switch): -1; higher = weaker reporter binding
Summary of the method: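 An oligonucleotide input, 200 uM small-molecule ligand, or no input was present during titration of SNAP-549-labelled MS2 coat protein, which was doubled from 0.7 or 1.5 nM to 3 µM. Designed RNA switches had been transcribed on Illumina chips by stalled E. coli RNA polymerase. Apparent KD per design is the median over clusters of curves fitted to normalised cluster fluorescence.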

[1] = Eterna round: R95, input ligand: microRNA oligo, concentration not stated
[2] = input ligand: microRNA oligo, concentration not stated
[3] = Eterna round: R95, input ligand: FMN 200 uM
[4] = Eterna round: R95, input ligand: none

Sequence | apparent KD of MS2 coat protein [1] | apparent KD of MS2 coat protein (input ligand: FMN 200 uM) | apparent KD of MS2 coat protein [2] | apparent KD of MS2 coat protein (input ligand: none) | apparent KD of MS2 coat protein [3] | apparent KD of MS2 coat protein [4]
GCGCACUAAGUGAGGAUAUCGUUUAUUUAUAGGAUCGAGAAGGCACAUGAGGAUCACCCAUGUUAAACGUGCGC [JR_BMOE4_Sub100] (puzzle: Brourd's mod of Exclusion 4) | 15.7 nM | – | – | – | – | –
GCGCCAUCGUGAGAUGGCGUAAUUACAUGAGGAUCACCCAUGUAGGAUAUCGAUUGCUUUGCAGUCGAGAAGGACAUGAUAAUU [JL ENG3 3.80] (Eterna round: R96, puzzle: Exclusion NG 3) | – | 104 nM | 25 nM | 33.7 nM | – | –
GCGCCAUCGUGAGAUGGCGUAAUUACAUGAGGAUCACCCAUGUAGGAUAUCGAUUGCUUUGCAGUCGAGAAGGGCAAGGUUUGU [JL ENG3 3.84] (Eterna round: R96, puzzle: Exclusion NG 3) | – | 25.7 nM | 19.9 nM | 30.9 nM | – | –
GCGGACAAGAUCGUGAGAUCAGAGACAUGAGGAUCACCCAUGUAGGAUAUCGAUUCGAAACGAAUCGAGAAGGGCAUAGUCCGC [JL denovo 6] (Eterna round: R96, puzzle: Exclusion NG 3) | – | 20.5 nM | 14.9 nM | 19.8 nM | – | –
GCGGACUAGAACGUGAGUUCUGAGACAUGAGGAUCACCCAUGUAGGAUAUCGAUUCGUUUCGAAUCGAGAAGGGCAUAGUCCGC [JL denovo 12] (Eterna round: R96, puzzle: Exclusion NG 3) | – | 21.3 nM | 14.2 nM | 20.3 nM | – | –
GCGGAUUAUGUAGGAUAUCGGUCAGUUUCUGAUCGAGAAGGACAUGAGGAUCACCCAUGUAAAUUGCCCGCUUUGUGGGUCCGC [JL ENG1 3.62] (Eterna round: R96, puzzle: Exclusion NG 1) | – | 41.7 nM | 15 nM | 15.7 nM | – | –
GCGUACUGAGGAUAUACAUGAGGAUCACCCAUGUAACACAGCAUAUAUAGAUAUUUUUGUAGAAGGCAGUAUGC [JR_Ex3_Sub057] (Eterna round: R97, puzzle: Exclusion 3) | – | 40.2 nM | – | 17.5 nM | – | –
GCGUACUGAGGAUAUACAUGAGGAUCACCCAUGUAACACAGCAUAUGUGAAGUUUUUUGUAGAAGGCAGUAUGC [JR_Ex3_Sub056] (Eterna round: R97, puzzle: Exclusion 3) | – | 180 nM | – | 28.7 nM | – | –
GCGUACUGAGGAUAUACAUGAGGAUCACCCAUGUGAAGAAGAAAGUAGUGAUGGUUAAGUAGAAGGCAGUAUGC [JR_Ex3_Sub063] (Eterna round: R97, puzzle: Exclusion 3) | – | 411 nM | – | 113 nM | – | –
GCGUCGAGUGUGAGGAUAUGCUGGUCAUAAGAUCAGCAGAAGGCACAUGAGGAUCACCCAUGUGAAAACGAUGC [Mat - Exclusion 4 - JL Mod - D69] (puzzle: Brourd's mod of Exclusion 4) | 16.3 nM | – | – | – | 73.2 nM | 20.6 nM
GCGUUCUGAGGAUAUACAUGAGGAUCACCCAUGUUGAGAAAUAAGAAUAAGCCCUUAAGUAGAAGGCAGAGUGC [JR_Ex3_Sub073] (Eterna round: R97, puzzle: Exclusion 3) | – | 105 nM | – | 27.8 nM | – | –
GCGUUUUGGUGAGGAUAUCGGCCCGAAACCGGGCAACAUGAGGAUCACCCAUGUACGUGAUCCUGCGAGAAGGCACCGAUUAUA [Bedi] (Eterna round: R96, puzzle: Exclusion NG 2) | – | 990 nM | 60.7 nM | 964 nM | – | –
GCUAAGAGUGUGAGGAUAUGCUGGUCCUUGGAUCAGCAGAAGGCACAUGAGGAUCACCCAUGUGAAAACUUAGC [Mat - Exclusion 4 - JL Mod - D64] (puzzle: Brourd's mod of Exclusion 4) | 19.9 nM | – | – | – | – | –
GCUAGAGCAGGAUAUCGAGAUCCGCACAUGAGGAUCACCCAUGUACGGUCGAAAGACCGACGAGAAGGGCUCUAGC [Omei Ex5 E10] (Eterna round: R97, puzzle: Exclusion 5) | – | 178 nM | – | 186 nM | – | –
GCUAGAGCAGGAUAUCUAGAUCCACACAUGAGGAUCACCCAUGUAUAGUCGAAAGACUAAAGAGAAGGGCUCUAGC [Omei Ex5 E14] (Eterna round: R97, puzzle: Exclusion 5) | – | 72.7 nM | – | 61.8 nM | – | –
GCUAGGAGUGUGAGGAUAUGCAGUUCCUUGGAACUGCAGAAGGCACAUGAGGAUCACCCAUGUGAAGACCUAGC [Mat - Exclusion 4 - JL Mod - D4] (Eterna round: R97, puzzle: Brourd's mod of Exclusion 4) | – | 212 nM | – | 26.6 nM | – | –
GCUAGGCAUGUCAGGAUAUGCUGUACCUUGGUACAGCAGAAGGGACAUGAGGAUCACCCAUGUGCCUACCUAGC [JL-BMX4-4.04] (Eterna round: R97, puzzle: Brourd's mod of Exclusion 4) | – | 173 nM | – | 28.3 nM | – | –

Sequence | apparent KD of MS2 coat protein [1] | apparent KD of MS2 coat protein (input ligand: FMN 200 uM) | apparent KD of MS2 coat protein [2] | apparent KD of MS2 coat protein (input ligand: none) | apparent KD of MS2 coat protein [3] | apparent KD of MS2 coat protein [4]
GCUCGUGGGCAAGGAUAUCCUACGCUGUUCUGGUUCGUGUCUGUCACAUGAGGAUCACCCAUGUGGGAGAAGGUGCAUUUGGGU [Design 56] (Eterna round: R96, puzzle: Exclusion NG 2) | – | 18.2 nM | 15.9 nM | 20.6 nM | – | –
GCUGCAAAUGUAGGAUAUCUGCACGUGUAGUGCAGAGAAGGACAUGAGGAUCACCCAUGUAGAUCAGCAGCAAUUAAUUUAAUU [ENG1/5-A3] (Eterna round: R96, puzzle: Exclusion NG 1) | – | 288 nM | 34.5 nM | 42.2 nM | – | –
GCUGCGCGAGGAUAUGCGGUUCGCGCGGUGGCCCGUGGCGGACAUGAGGAUCACCCAUGUAGAAGGCGUGCGGG [Apr-15 SS2-59] (puzzle: Exclusion 2) | 11.2 nM | – | – | – | – | –
GCUGGAAAAGGAUAUACAUAACGUGCGUCGGCACGAGACCUACAUGAGGAUCACCCAUGUAGAAGGUUUCCAGC [EX2 #74] (Eterna round: R97, puzzle: Exclusion 2) | – | 20.9 nM | – | 13.6 nM | – | –
GCUGGACAAGGAUAUAUAUGACGUGCUUCGGCACGAAGGUCACAUGAGGAUCACCCAUGUAGAAGGUGUCCAGC [E2/9-C2] (Eterna round: R97, puzzle: Exclusion 2) | – | 342 nM | – | 49.7 nM | – | –
GCUGGUCAAGGAUAUAUAUGACGUGCUUCGGCACGAAGGUCACAUGAGGAUCACCCAUGUAGAAGGUGACCAGC [E2/9-C1] (Eterna round: R97, puzzle: Exclusion 2) | – | 304 nM | – | 39.7 nM | – | –
GCUGGUCGAGGAUAUACAUGAGGAUCACCCAUGUGAUUAGCAGUCCUCGGACUGCAAUGUAGAAGGUGACCAGC [E3/2-B1] (Eterna round: R97, puzzle: Exclusion 3) | – | 907 nM | – | 198 nM | – | –
GCUGGUCGAGGAUAUGCAUUCGUGCUUCGGCACGUAAGGUCACAUGAGGAUCACCCAUGUAGAAGGCGACCAGC [E2/6-A1] (Eterna round: R97, puzzle: Exclusion 2) | – | 30.2 nM | – | 17.5 nM | – | –
GCUUGGCGAGGAUAUACAUGAGGAUCACCCAUGUGAGAGAAAUAAGUGAGGAAGAAAAGUAGAAGGCGCUGAGG [Mat - Exclusion 3 - Mod of Salish D59] (puzzle: Exclusion 3) | 58.9 nM | – | – | – | 167 nM | 61 nM
GCUUGUGGGCAAGGAUAUCCUGCGCUGUUCUGGUUCGUGUCUGUCACAUGAGGAUCACCCAUGUGGGAGAAGGUGCCUGUGGCG [Design 66] (Eterna round: R96, puzzle: Exclusion NG 2) | – | 22 nM | 17.4 nM | 24.2 nM | – | –
GCUUGUGGGCAAGGAUAUCCUGCGCUGUUCUGGUUCGUGUCUGUCACAUGAGGAUCACCCAUGUGGGAGAAGGUGCCUUUGGUG [Design 64] (Eterna round: R96, puzzle: Exclusion NG 2) | – | 13.4 nM | 10.9 nM | 14.9 nM | – | –
GCUUUAUGCUCGUUAUAACACAUGAGGAUCACCCAUGUUCGGGCUUACGAGUCGUUCUGAAUGUGACCCUGCAUGAG [Eternabot (L2) Solution 47] (Eterna round: R97, puzzle: Sensor, turn-off variant 1) | – | 200 nM | – | 193 nM | – | –
GCUUUUGGGCAAGGAUAUCCUGCGCGGUUCCGGUUCGUGUCUGUCACAUGAGGAUCACCCAUGUGGGAGAAGGUGCCUGCGGUG [Design 73] (Eterna round: R96, puzzle: Exclusion NG 2) | – | 21.5 nM | 11.7 nM | 19 nM | – | –
GGAAAGCAAGGAUAUACAAGUAAACGAUGGAAAGUAGAGAGACAUGAGGAUCACCCAUGUAGAAGGUGCGAGAG [JR_Exclu2_Sub036] (puzzle: Exclusion 2) | 30.1 nM | – | – | – | 24.1 nM | 22.2 nM
GGAAAGGUAGGAUAUACGAAAAAAAAGGGUAGAAAAAAAACACAUGAGGAUCACCCAUGUAGAAGGACCAAAAG [salish99_ex2_r3_036] (puzzle: Exclusion 2) | 36.1 nM | – | – | – | 44.8 nM | 33 nM
GGAAAGGUAGGAUAUACGAAGAAAAAGGGUAGAAGAAAAACACAUGAGGAUCACCCAUGUAGAAGGACCAAAGG [Mat - Exclusion 2 - Mod of my Tesla design - D2] (puzzle: Exclusion 2) | 22.1 nM | – | – | – | 51.4 nM | 23.4 nM
GGAAAGUGAGGAUAUGGUAAAGUAAGUAUGUAGUAAGUAAUCCAGAAGGCACAUGAGGAUCACCCAUGUAAAGG [Mat - Exclusion 4 - D101] (puzzle: Exclusion 4) | 25.4 nM | – | – | – | 24.8 nM | 26.8 nM
